Assay: yeast display, Sf9 membrane polyspecificity reagent, FACS + sequencing; frameworks hold sequencing errors
Outline: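 Galactose induction of a Saccharomyces cerevisiae BJ5465 synthetic nanobody display library ran 36–48 hours. The cells were then stained for 1 hour at 4 °C with 10% biotinylated, detergent-solubilized Sf9 membrane reagent, pulled down on streptavidin microbeads and FACS-sorted into low and high (top ~1%) gates on expression and reagent-binding fluorescence. Labels for polyreactivity follow the gate of origin.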

Sequence: QVQLVESGGGLDQAGGSLRLSCAASGSTFANNAMGWYREAPGKERELVAAISSGGSTNYADSVKGRFTISRDNAKNTGYLQMNSLKPEDTAVYYCNADAYDEIKYGYWGQGTQVTVSS
- polyreactivity (PSR sort gate): low polyreactivity

Sequence: QVQLVDSVGGLVQAGGSLRLSCAASGFTFGVNVMGWYRQEPGKEREFVAAITWSGDSTYYADSVKGRFTISRDNAKNTVYLQMNSLKPEDSAVYYCAADGNTWPADFLSYYFEFDEYWGQGTQVTVSS
- polyreactivity (PSR sort gate): low polyreactivity

Sequence: QVQLVESGGGLVQAGGSLRLSCAASGLIFDTYAMGWYRQAPGKERELVADITWSGGSTYYADSVKGRFTISRDNAKNTVYLQMNSLKPEDTAVYYCAADSVSLFYWDQRYPDEYDYWGQGTQVTVSS
- polyreactivity (PSR sort gate): low polyreactivity

Sequence: QVQLVESGGGLVQAGGSIRLSSAASGLIFLGDPMGWYRQAPGKERELVASIRTGRSTSYADSVKGRFTFSRDNAKYTVYLQMNSLKPEDTAVYYCAADRGRPNLPGDYWGQGSQVTVSS
- polyreactivity (PSR sort gate): low polyreactivity

Sequence: QVQLVESGGGLVQAGGSLRLSCAASGSIFRYYAMGWYRQEPGKERELVAAISWDGGTTYYADSVKGRFTISRDNAKNTVYLQMNSLKPEDTGVYYCNVEFPLSSYGYDYWGQGTQVTVSS
- polyreactivity (PSR sort gate): low polyreactivity

Sequence: QVQLVESGGGLVQAGGSLRLTCAASGSTFVPYVMGWYRQAPGKERELVAVITWTGGSTYYADSVKGRFTISRDNAKNTVYLQMNSLKPEDTAVYYCAAEYSPWFYFEQYDYWGQGTQVTVSS
- polyreactivity (PSR sort gate): low polyreactivity

Sequence: QVQLVESGGGLVQAGGSLRLSCAASGRIFRKYAMGWYRQAPGKERELVAAISGSGGSTTYADSVKGRFTISRDNAKNTVYLQMNSLKPEDTAVYYCAARGYSLYGYPYYYWGQGTQVSVSS
- polyreactivity (PSR sort gate): high polyreactivity

Sequence: QVQLVESGGGLVQAGGSLRLSCAASGSIFPFYAMGWYRQAPGKEREMLAANSDRGGSTYYADSVKGRFTISRDNAKNTVYLQMNSLKPEDTAVYYCNADRARFTYRATTYTGRYDYWGQGTQVTVSS
- polyreactivity (PSR sort gate): low polyreactivity

Sequence: QVQLEESGGGLVQAGGSLRLSCAASGSIFQQYAMGWYRQAPGKERELVAAISYSGGTTYYADSVKGRFTISRDNAKNTVYLQMNSLKPEDTAVDYCAAYYPSGSYDYYWGQGTQVTVSS
- polyreactivity (PSR sort gate): low polyreactivity

Sequence: QVQLVESGGGLVQAGGSLRLSCAASGSTFSDYAMGWYRPEPGKERELDATITSTGDTNYADSVKGRFTMSRDNAKTTVYLQMNSLKPEDTAVYYCAAQHKKYGKRGRWNNFGYWGQGTQVTVSS
- polyreactivity (PSR sort gate): low polyreactivity

Sequence: QVQLVESGGGLYQAGGSLRLSCAASGRIFRYYAMGWYRQAPGKERELVAAINWSGGSTYYADSVKGRFTISRDNAKNTVYLQMNSLKPEDTAVYYCNTRWYVGDDWGQGTQVTVSS
- polyreactivity (PSR sort gate): high polyreactivity

Sequence: QVQLVESVGGLVQAGGSLRLSCAASGSTFVGNAMGWYRQAPGKERELVAAITGGGGSTYYADSVKGRFTISRDNAKNTVYLQMNSLKPEDTAVYYCAREYTYYPRWVGYDAYGEDYWGQGTQVTVSS
- polyreactivity (PSR sort gate): low polyreactivity

Sequence: QVQLVESGGGLVQPGGSLRLSCAASGYTSSPYAMGWYRQAPGKERELVAGISSGGSTYADSVKGRFTISRDNAKNTVYLQMISLKPEDTAVYYCADVWYYWTFEFDYWGQGTQVTVSS
- polyreactivity (PSR sort gate): high polyreactivity

Sequence: QVQLVESGGGLVQAGGSLRLSCAASGRIFVTYAMGWYRQAPGKERELVAAIPWDGDSTYYADSVKGRFTISRDNAKNTVYLQMNSLKPEDTAVYYCNAKKFNSHVELGYDYWGQGTQVTVSS
- polyreactivity (PSR sort gate): low polyreactivity

Sequence: QVQLVESGGGLVQAGGSLRLSCAASGSTFVSNAMGWYRQAPGKERELVAGITFSGGSTYYADSVKGRFTISRDNAKNTVYLQMNSLKPEDTAVYYCAAEFHWWYAGYDYGYWGQGTQVTASS
- polyreactivity (PSR sort gate): low polyreactivity

Sequence: QVQLVESGGGLVQAGGSLRLSCAASGAIFVPYAMGWYRQAPGKERELVAAITYSDGSTYYADSVKGRFTISRDNAKNTVYLQMNSLKPEDTAVYYCAAEWIEFPDPVSWYYYTPYYYWGQGTQVTVSS
- polyreactivity (PSR sort gate): high polyreactivity

Sequence: QVQLVESGGGLVQAGGSLRLSCAASGFTLRSNVMGWSRQAPGKERELVAGISQSGGRTFYADSVKGRFTISRDNAKNTVYLQMNSLKPEDTAVYYCAARRYAVEGSKNYYWGQGTQVTVSS
- polyreactivity (PSR sort gate): low polyreactivity

Sequence: QVQLVESGGGLVQEGGSLRLSCAASGFIFSFYVMGWYRQAPGKERELVAAISTSGASTYYADSVKGRFTISRDNAKNTVYLQMNSLKQEDTAVYYCNVVYRYGGYIYWGQGTQVTVSS
- polyreactivity (PSR sort gate): high polyreactivity

Sequence: QVQLVESGGGLVQAGGSLRLSCAASGSTFFFNEMGWYRQAPGKEREVVAAITGRSGSTYYADSVKGRFTISRDNANNTDYLQMNSLKPEDNAVYYCAGDYSPWRSDFDYWGQGTQVTVSS
- polyreactivity (PSR sort gate): low polyreactivity

Sequence: QVQLVESGGGLVQAGGSLRLSCAASGSILYVNAMGWYRQATGKERELVAAITRTGGSTYYADSVKGRFTISRDNAKNTVYLQMNSLKPEDTAVYYCNAASSLPGYDYWGQGTQVTVSS
- polyreactivity (PSR sort gate): high polyreactivity

Sequence: HVQLVESGGGLVQAGGSLRLRCAASGITFAEYTMGWYRQAPGKERELVAAISRRGGSTYYADSVKGRLTISRDNAKNTVYLQMNSLKPEDTAVYYCNALFRYSRDYWGQGTQVTVSS
- polyreactivity (PSR sort gate): high polyreactivity

Sequence: QVQLVESGGGLVQAGGSLRLSCAASGSTFARNVMGWYRQAPGKERELVAAISWRGGRTYYADSVKGRFTISRDNAKNTVYLQMNSLKPEDTAVYYCAAGRSFRGSYWYEYWGQGTKVTVSS
- polyreactivity (PSR sort gate): high polyreactivity

Sequence: QVQLVESGGGLVQAGGSLRLSCAASGNIFRINAMGWYRQAPGKERELVAAISRSVGSTYADSVKGRFTISRDNAKNTVYLQMNSLKPEDTAVYYCNARGRTQQRWVDYWGQGTQVTVSS
- polyreactivity (PSR sort gate): high polyreactivity

Sequence: QVQLVESGGGLVQAGGSLRLSCAASGSIFYINTMGWYRQPPGKERELVAAINFSDGRTYYADSVKGRFTISRDNAKNTVYLQMNSLKPEDTAVYYCAADVYPSEYDYWGQGTQVTVSS
- polyreactivity (PSR sort gate): low polyreactivity

Sequence: QVQLVESGGGLVQAGGSLRLSCAASGSILFYAMGWYRQAHGKERELVAAITWRGGSTFYADSVKGRFTISRDNAKNTVYLQMNSLKPDDTAVYYCAASYYRYGHRSRGRYYYWGQGTQVTVSS
- polyreactivity (PSR sort gate): high polyreactivity

Sequence: QVQLVESGGGLVQAGGSLRLSCAASGSTFDPYGMGWYRQAPGKERELVAAITSSGRTNYADSVKGRFTISRDNAKNTVYLQMKSLKPEDTAVYYCATRKERYFYRGYEYWGQGTQVTVSS
- polyreactivity (PSR sort gate): low polyreactivity

Sequence: QVQLVESGGGLVQAGGSLRLSCAASGSILIYNAMGWYRQAPGKERELVAGISRRGASTYYADSVKGRFTISRDNAKNTVYLQMNSLKPEDTAVYYCAALGKYIVAWAGDYWGQGTQVTVSS
- polyreactivity (PSR sort gate): low polyreactivity

Sequence: QVQLVESGGVLVQAGGSLRITCAASGHIFFYDTMGWYRQAPGKERELVAGITIGGSTNYADSVKGRFTISRDNAKNTVSLQMNSLKPEDTAVYFCNVVKYVYIYSYWEYYYWGQCTQVTVSS
- polyreactivity (PSR sort gate): low polyreactivity

Sequence: QVQLVESGGGLVQAGGSLRLSCAASGITFPYYGMGWYRQAPGKERELVAAISRGGRTNYADSVKGRFTISRDNAKNTVYLQMNSLKPEDTAVYYCNTRTWSVFAKSDYWGQGTQVTVSS
- polyreactivity (PSR sort gate): high polyreactivity

Sequence: QVQLVESGGGLVQAGGSLRLSCAASGRIFSYYAMGWYRQAPGKERELVAAINWSGGSTYYADSVKGRFTISRDNAKNTVYLQMNSLKPEDTAVYYCAVDWTSAYGTYYYTPYDSWGQGTQVTVSS
- polyreactivity (PSR sort gate): low polyreactivity

Sequence: QVQLVESGGGLVQAGGSLRLSCAASGSTFVNYAMGWYRQAPGKERELVAAITRGGRTYYADSVKGRFTISRDNAKNTVYLQMNSLKPEDTAVYYCAARRSYNPAFGYWGQGTQVTVSS
- polyreactivity (PSR sort gate): high polyreactivity

Sequence: QVQLVESGGGLVQAGGSLRLSCAASGSTFHYYAMGWYRQAPGKERELVAAISKRGGSTYYADSVKGRFTISRDNAKNNVYLQMNSLKPEDTSVYYCAKTWVSYSRYHYEYWGQGTQVTVSS
- polyreactivity (PSR sort gate): high polyreactivity

Sequence: QVQLVESGGGLVQAGGSLRLSCAASGLIFGYNAMGWYRQAPGKEREFVAGISSSGVSTYYADSVKGRFTISRDNAKNTVYLQMNSLKPEDTAVYYCAADTVDLEFDYWGQGTQVTVSS
- polyreactivity (PSR sort gate): low polyreactivity

Sequence: QVQLVESGGGLVQAGGSLRLSCAASGTIFVAYDMGWYRQAPGKERELVAAINFDGTSTYYADSVKGRFTISRDNAKNTVYLQMNSLKPEDTAVYYCNKRVSPTYKGQYDYWGQGTQVTVSS
- polyreactivity (PSR sort gate): low polyreactivity

Sequence: QVQLEESGGGLVQAGGSLRLICAASGIIFRLNAMGWYRQATGQDRELVAAIRRRGGSTYYADSVKGRFTISRDNAKNTVYLQMNSLKPEDTAVYYCNARYLRMRYPYTDEYNYWGQGTQVTVSS
- polyreactivity (PSR sort gate): low polyreactivity

Sequence: QVQLVESGGGLVQAGGSLRLSCAASGSTFLRNVMGWYRQAPGKERELVAAISSRGGSTHYADSVKGRFTISRDNAKNTVYLQMNSLKPEDTAVYYCNSERTAAQYVRAAYDYWGQGTQVTVSS
- polyreactivity (PSR sort gate): low polyreactivity

Sequence: QVQLVESGGGLVQAGGSLRLSCAASGRTFVWNVMGWYRQAPGKEREFVAAISGGSTYYADSVKGRFTISRDNAKNTVYLKMNSLKQEDTPVYYCAAASKLHPRYEYWGQGTQVTVSS
- polyreactivity (PSR sort gate): low polyreactivity

Sequence: QVQLGESGGGLVQAGGSLRLSCAASGGIFAENAIGRYRQAPGKERELVAAINGGGSTKYADSVKGRFTISRDNAKNTVYLQMNSLKPEDTAVYYCAADPSVPRQVDYWGQGTLVTVSS
- polyreactivity (PSR sort gate): low polyreactivity

Sequence: QVQLVESGGGLVQAGGSLRLSCAASGRIFGTNAMGWYRQAHGKERELVADITSGGSTNYADSVKGRFTISRDNAKNTVYLQMNSLKPEDTAVSYCAADVIGDLPWYRDEYWGQGTQVTVSS
- polyreactivity (PSR sort gate): low polyreactivity

Sequence: QVQLVESGGGLVQAGGSLRLSCAASGLTFDGNAMGWYRQAPGKERELVAAITSSGGNTYYADSVKGRFTISRDNAKNTVYLQMNSLKPEDTAVYYCAAGGYRWSARTWSWVRYDYWGQGTQVTVSS
- polyreactivity (PSR sort gate): high polyreactivity

Sequence: QVQLVESGGGLVQAGGSLRLSCAASGFTFIYYAMGWYRQAPGKERELVAAIRWSGGSTYYADSVKGRFTISRDNAKNTVYLQMNSLKPEDTAVYYCAASWYWFAQKRVYYWGQGTQVTVSS
- polyreactivity (PSR sort gate): high polyreactivity

Sequence: QVQLVESGGGLVQAGGSLRLSCAASGSTFFRYAMGWYRQAPGKEREFVAAITSSGGNTYYADSVKGRFTISRDNAKNTVYLQMNSLKPEDTAVYYCADVWYSPYVKYNYWGQGTQVTVSS
- polyreactivity (PSR sort gate): low polyreactivity

Sequence: QVQLVESGGGLVQAGGSVRLSCAASGLIFGGYTMGWYRQAPGKDRELVAAIDSADSTYYADSVKGRFTISRDNAKNTVYLQMNSLKPEDTAVYYCATYWYYSGPAYSLRETGGVNYWGQGTQVTVSS
- polyreactivity (PSR sort gate): low polyreactivity
